Data taken from the Human Domainome abundance scans (Beltran et al. 2025).
± gives the uncertainty stated by the source.

B1: Histone H1t, residues 44 to 112; numbered along this chain, P22492 (parent)
chain: VSKLITEALSVSQERVGMSLVALKKALAAAGYDVEKNNSRIKLSLKSLVNKGILVQTRGTGASGSFKLS

Variants of: B1
Experiment: abundance fitness (aPCA) (normalised: wild type 0, dead -1); higher = more abundant; growth selection in yeast, the domain comes from the species named
Conditions: Homo sapiens

Row | Variant | abundance fitness
1 | VSKLITEALSVSQERVGMSLVALKKALAAAGYDVEKNNSRIKLSLRSLVNKGILVQTRGTGASGSFKLS [K46R] | -0.053 ± 0.066
2 | VSKLITEALSVSQERVGMSLVALKKALAAAGYDVEKNNSRIKLSLSSLVNKGILVQTRGTGASGSFKLS [K46S] | -0.332 ± 0.041
3 | VSKLITEALSVSQERVGMSLVALKKALAAAGYDVEKNNSRIKLSLTSLVNKGILVQTRGTGASGSFKLS [K46T] | -0.209 ± 0.079
4 | VSKLITEALSVSQERVGMSLVALKKALAAAGYDVEKNNSRIKLSLVSLVNKGILVQTRGTGASGSFKLS [K46V] | -0.197 ± 0.065
5 | VSKLITEALSVSQERVGMSLVALKKALAAAGYDVEKNNSRIKLSLWSLVNKGILVQTRGTGASGSFKLS [K46W] | -0.418 ± 0.094
6 | VSKLITEALSVSQERVGMSLVALKKALAAAGYDVEKNNSRIKLSLYSLVNKGILVQTRGTGASGSFKLS [K46Y] | -0.895 ± 0.14
7 | VSKLITEALSVSQERVGMSLVALKKALAAAGYDVEKNNSRIKLSLKALVNKGILVQTRGTGASGSFKLS [S47A] | -0.049 ± 0.045
8 | VSKLITEALSVSQERVGMSLVALKKALAAAGYDVEKNNSRIKLSLKCLVNKGILVQTRGTGASGSFKLS [S47C] | 0.036 ± 0.16
9 | VSKLITEALSVSQERVGMSLVALKKALAAAGYDVEKNNSRIKLSLKDLVNKGILVQTRGTGASGSFKLS [S47D] | -0.07 ± 0.18
10 | VSKLITEALSVSQERVGMSLVALKKALAAAGYDVEKNNSRIKLSLKELVNKGILVQTRGTGASGSFKLS [S47E] | 0.232 ± 0.1
11 | VSKLITEALSVSQERVGMSLVALKKALAAAGYDVEKNNSRIKLSLKFLVNKGILVQTRGTGASGSFKLS [S47F] | -0.41 ± 0.1
12 | VSKLITEALSVSQERVGMSLVALKKALAAAGYDVEKNNSRIKLSLKGLVNKGILVQTRGTGASGSFKLS [S47G] | -0.465 ± 0.12
13 | VSKLITEALSVSQERVGMSLVALKKALAAAGYDVEKNNSRIKLSLKHLVNKGILVQTRGTGASGSFKLS [S47H] | -0.13 ± 0.082
14 | VSKLITEALSVSQERVGMSLVALKKALAAAGYDVEKNNSRIKLSLKILVNKGILVQTRGTGASGSFKLS [S47I] | -0.587 ± 0.24
15 | VSKLITEALSVSQERVGMSLVALKKALAAAGYDVEKNNSRIKLSLKKLVNKGILVQTRGTGASGSFKLS [S47K] | -0.191 ± 0.089
16 | VSKLITEALSVSQERVGMSLVALKKALAAAGYDVEKNNSRIKLSLKLLVNKGILVQTRGTGASGSFKLS [S47L] | -0.228 ± 0.033
17 | VSKLITEALSVSQERVGMSLVALKKALAAAGYDVEKNNSRIKLSLKMLVNKGILVQTRGTGASGSFKLS [S47M] | -0.05 ± 0.066
18 | VSKLITEALSVSQERVGMSLVALKKALAAAGYDVEKNNSRIKLSLKNLVNKGILVQTRGTGASGSFKLS [S47N] | -0.156 ± 0.22
19 | VSKLITEALSVSQERVGMSLVALKKALAAAGYDVEKNNSRIKLSLKQLVNKGILVQTRGTGASGSFKLS [S47Q] | 0.02 ± 0.041
20 | VSKLITEALSVSQERVGMSLVALKKALAAAGYDVEKNNSRIKLSLKRLVNKGILVQTRGTGASGSFKLS [S47R] | -0.087 ± 0.058

Row | Variant | abundance fitness
21 | VSKLITEALSVSQERVGMSLVALKKALAAAGYDVEKNNSRIKLSLKTLVNKGILVQTRGTGASGSFKLS [S47T] | 0.01 ± 0.043
22 | VSKLITEALSVSQERVGMSLVALKKALAAAGYDVEKNNSRIKLSLKVLVNKGILVQTRGTGASGSFKLS [S47V] | -0.307 ± 0.071
23 | VSKLITEALSVSQERVGMSLVALKKALAAAGYDVEKNNSRIKLSLKWLVNKGILVQTRGTGASGSFKLS [S47W] | -0.143 ± 0.09
24 | VSKLITEALSVSQERVGMSLVALKKALAAAGYDVEKNNSRIKLSLKYLVNKGILVQTRGTGASGSFKLS [S47Y] | -0.23 ± 0.11
25 | VSKLITEALSVSQERVGMSLVALKKALAAAGYDVEKNNSRIKLSLKSAVNKGILVQTRGTGASGSFKLS [L48A] | -0.755 ± 0.084
26 | VSKLITEALSVSQERVGMSLVALKKALAAAGYDVEKNNSRIKLSLKSCVNKGILVQTRGTGASGSFKLS [L48C] | -0.589 ± 0.13
27 | VSKLITEALSVSQERVGMSLVALKKALAAAGYDVEKNNSRIKLSLKSDVNKGILVQTRGTGASGSFKLS [L48D] | -0.405 ± 0.14
28 | VSKLITEALSVSQERVGMSLVALKKALAAAGYDVEKNNSRIKLSLKSEVNKGILVQTRGTGASGSFKLS [L48E] | -0.784 ± 0.18
29 | VSKLITEALSVSQERVGMSLVALKKALAAAGYDVEKNNSRIKLSLKSFVNKGILVQTRGTGASGSFKLS [L48F] | -0.404 ± 0.039
30 | VSKLITEALSVSQERVGMSLVALKKALAAAGYDVEKNNSRIKLSLKSGVNKGILVQTRGTGASGSFKLS [L48G] | -0.894 ± 0.12
31 | VSKLITEALSVSQERVGMSLVALKKALAAAGYDVEKNNSRIKLSLKSHVNKGILVQTRGTGASGSFKLS [L48H] | -0.979 ± 0.097
32 | VSKLITEALSVSQERVGMSLVALKKALAAAGYDVEKNNSRIKLSLKSIVNKGILVQTRGTGASGSFKLS [L48I] | -0.564 ± 0.059
33 | VSKLITEALSVSQERVGMSLVALKKALAAAGYDVEKNNSRIKLSLKSKVNKGILVQTRGTGASGSFKLS [L48K] | -0.939 ± 0.079
34 | VSKLITEALSVSQERVGMSLVALKKALAAAGYDVEKNNSRIKLSLKSNVNKGILVQTRGTGASGSFKLS [L48N] | -0.775 ± 0.094
35 | VSKLITEALSVSQERVGMSLVALKKALAAAGYDVEKNNSRIKLSLKSPVNKGILVQTRGTGASGSFKLS [L48P] | -0.873 ± 0.074
36 | VSKLITEALSVSQERVGMSLVALKKALAAAGYDVEKNNSRIKLSLKSQVNKGILVQTRGTGASGSFKLS [L48Q] | -0.643 ± 0.075
37 | VSKLITEALSVSQERVGMSLVALKKALAAAGYDVEKNNSRIKLSLKSRVNKGILVQTRGTGASGSFKLS [L48R] | -0.864 ± 0.1
38 | VSKLITEALSVSQERVGMSLVALKKALAAAGYDVEKNNSRIKLSLKSSVNKGILVQTRGTGASGSFKLS [L48S] | -0.801 ± 0.068
39 | VSKLITEALSVSQERVGMSLVALKKALAAAGYDVEKNNSRIKLSLKSTVNKGILVQTRGTGASGSFKLS [L48T] | -0.592 ± 0.064
